Laboratory results as given in US20240034813A1 (Janssen / Centocor, published 2024).

Assays:
[1] = molecular target: T1, recombinant human EGFR/ErbB1/HER1 with C-terminal His tag, Cy5-labeled (human, UniProt P00533 25-645, Cy5 label (reacted with Cy5 Mono NHS Ester; sites not stated)); assay: competitive TR-FRET (Eu-amivantamab/Cy5-EGFR), EC50 ratio vs Reference Material; Ex. 2 Formulation 2 (50 mM histidine), 3 months at 40 C
T1 construct: Commercial protein; also called Cy5-EGFR; Cy5-labeled EGFR antigen; not shown: C-terminal His tag
Excerpt: (§1) In this procedure, varying concentrations of unlabeled bispecific EGFR-cMet antibody sample compete with donor fluorophore (Europium (Eu) chelate) labeled bispecific EGFR-cMet antibody for binding to an acceptor fluorophore (Cy5)-labeled EGFR antigen. Excitation of the donor fluorophore results in a transfer of energy to the bound acceptor fluorophore (FRET process). The resultant FRET is detected by emission of light at 665 nm using a microplate reader capable of measuring time-resolved fluorescence. Sample dose response curves are compared to the RM.
(§2) EGFR Binding Materials and Methods. Certified commercial EGFR, a recombinant human EGFR/ErbB1/HER1 with C-terminal His tag is reacted with certified commercial Cy5 Mono NHS Ester to produce Cy5-labeled EGFR. Validated bispecific EGFR-cMet antibody is reacted with certified commercial Europium (Eu) chelate to produce Eu-labeled bispecific EGFR-cMet antibody. […] Fluorescence is then measured by spectrophotometry at 665 nm, plotted against antibody concentration and analyzed by a four-parameter logistic model. The antibody concentration required to obtain half of the maximum fluorescence response (EC50) is determined for RM, assay control and samples. The potencies of assay control and samples are calculated based on the ratio of the sample (or control) and RM EC50 values and reported as a percentage activity relative to the RM.

[2] = molecular target: T1, recombinant human EGFR/ErbB1/HER1 with …; assay: competitive TR-FRET (Eu-amivantamab/Cy5-EGFR), EC50 ratio vs Reference Material; Ex. 3 acetate formulation, 6 months at 25 C, untreated control
Excerpt: as §1, §2

[3] = molecular target: T1, recombinant human EGFR/ErbB1/HER1 with …; assay: competitive TR-FRET (Eu-amivantamab/Cy5-EGFR), EC50 ratio vs Reference Material; Ex. 2 Formulation 1 (10 mM histidine), 3 months at 25 C
Excerpt: as §1, §2

[4] = molecular target: T1, recombinant human EGFR/ErbB1/HER1 with …; assay: competitive TR-FRET (Eu-amivantamab/Cy5-EGFR), EC50 ratio vs Reference Material; Ex. 2 Formulation 2 (50 mM histidine), 3 months at 5 C
Excerpt: as §1, §2

[5] = molecular target: T2, recombinant cMet/HGFR with c-terminal His-tag, Cy5-labeled (UniProt P08581 25-932, limits assumed, Cy5 label (reacted with Cy5 Mono NHS Ester; sites not stated)); assay: competitive TR-FRET (Eu-amivantamab/Cy5-c-MET), EC50 ratio vs Reference Material; Ex. 3 acetate formulation, 6 months at 25 C then 5 freeze/thaw cycles
T2 construct: Commercial protein; also called Cy5-c-MET; Cy5-labeled c-MET antigen; not shown: C-terminal His-tag
Excerpt: as §1, with “(Cy5)-labeled c-MET” for “(Cy5)-labeled EGFR”, “the Reference Material (RM).” for “the RM.”
as §2, with “c-MET Binding” for “EGFR Binding”, “commercial cMet,” for “commercial EGFR,”, “recombinant cMet/HGFR” for “recombinant human EGFR/ErbB1/HER1”, “with c-terminal His-tag” for “with C-terminal His tag”, “Cy5-labeled c-MET.” for “Cy5-labeled EGFR.”, “produce Eu labeled” for “produce Eu-labeled”

[6] = molecular target: T2, recombinant cMet/HGFR with c-terminal …; assay: competitive TR-FRET (Eu-amivantamab/Cy5-c-MET), EC50 ratio vs Reference Material; Ex. 2 Formulation 2 (50 mM histidine), T0, 5 C table
Excerpt: as §1, with “(Cy5)-labeled c-MET” for “(Cy5)-labeled EGFR”, “the Reference Material (RM).” for “the RM.”
as §2, with “c-MET Binding” for “EGFR Binding”, “commercial cMet,” for “commercial EGFR,”, “recombinant cMet/HGFR” for “recombinant human EGFR/ErbB1/HER1”, “with c-terminal His-tag” for “with C-terminal His tag”, “Cy5-labeled c-MET.” for “Cy5-labeled EGFR.”, “produce Eu labeled” for “produce Eu-labeled”

[7] = molecular target: T2, recombinant cMet/HGFR with c-terminal …; assay: competitive TR-FRET (Eu-amivantamab/Cy5-c-MET), EC50 ratio vs Reference Material; Ex. 3 acetate formulation with PS80, T0
Excerpt: as §1, with “(Cy5)-labeled c-MET” for “(Cy5)-labeled EGFR”, “the Reference Material (RM).” for “the RM.”
as §2, with “c-MET Binding” for “EGFR Binding”, “commercial cMet,” for “commercial EGFR,”, “recombinant cMet/HGFR” for “recombinant human EGFR/ErbB1/HER1”, “with c-terminal His-tag” for “with C-terminal His tag”, “Cy5-labeled c-MET.” for “Cy5-labeled EGFR.”, “produce Eu labeled” for “produce Eu-labeled”

[8] = molecular target: T1, recombinant human EGFR/ErbB1/HER1 with …; assay: competitive TR-FRET (Eu-amivantamab/Cy5-EGFR), EC50 ratio vs Reference Material; Ex. 12 drug product with rHuPH20, 1 month at 40 C
Excerpt: as §1, §2

EGFR Binding % activity relative to RM [1]: 38%
EGFR Binding % activity relative to RM [2]: 83%
EGFR Binding % activity relative to RM [3]: 100%
EGFR Binding % activity relative to RM [4]: 96%
cMET Binding % activity relative to RM [5]: 84%
cMET Binding % activity relative to RM [6]: 102%
cMET Binding % activity relative to RM [7]: 94%
EGFR Binding activity relative to Reference Material (%) [8]: 41%
B1: amivantamab (bispecific antibody, human IgG1, kappa)
heavy 1: not shown
light 1: not shown
heavy 2: not shown
light 2: DIQMTQSPSSVSASVGDRVTITCRASQGISNWLAWFQHKPGKAPKLLIYAASSLLSGVPSRFSGSGSGTDFTLTISSLQPEDFATYYCQQANSFPITFGQGTRLEIKRTVAAPSVFIFPPSDEQLKSGTASVVCLLNNFYPREAKVQWKVDNALQSGNSQESVTEQDSKDSTYSLSSTLTLSKADYEKHKVYACEVTHQGLSSPVTKSFNRGEC
notes: The samples tested were high concentration (160 mg/mL) formulations, fresh or stored or stressed; also called JNJ-61186372; bispecific EGFR-cMet antibody
